Values quoted from earlier work in patent publication US9817004B2, “Development and use of cysteine-labeled fluorescent probes of unbound analytes” (priority 2008, dated 2017).
Positions count from the first letter of the chain named.

B1: Thr81Cys: I-FABP mutant Thr81Cys labeled with acrylodan (Kleinfeld '714) (protein, UniProt P02693 2-132, looked up, variant T81C)
Fatty acid-binding protein, …: AFDGTWKVDRNENYEKFMEKMGINVVKRKLGAHDNLKLTITQEGNKFTVKESSNFRNIDVVFELGVDFAYSLADGTELTGCWTMEGNKLVGKFKRVDNGKELIAVREISGNELIQTYTYEGVEAKRIFKKE
modifications: acrylodan label
B2: Thr83Cys: I-FABP mutant Thr83Cys labeled with acrylodan (Kleinfeld '714) (protein, UniProt P02693 2-132, looked up, variant T83C)
Fatty acid-binding protein, …: B1 Fatty acid-binding protein, … with C81T, T83C
modifications: acrylodan label

Details: I-FABP mutants labeled with acrylodan; from U.S. Pat. No. 5,470,714; cited from earlier work

| Molecule | fluorescence response to FFAu binding |
| --- | --- |
| B1 | unresponsive to FFAu binding |
| B2 | unresponsive to FFAu binding |
